# From article PMC9541495, “Understanding the interaction of 14‐3‐3 proteins with hDMX and hDM2: a structural and biophysical study” (The Febs Journal, 2022)
# T1: 14‐3‐3β (human, UniProt P31946 1-246)
# T1 construct: 14-3-3 beta, human, full-length protein from the pProEx HTb-His-14-3-3 construct; Written as the protomer; tag removal is told only for the ∆C proteins; source: E. coli BL21(DE3), purified (Ni2+-NTA, dialysis)
# T1 sequence (looked up): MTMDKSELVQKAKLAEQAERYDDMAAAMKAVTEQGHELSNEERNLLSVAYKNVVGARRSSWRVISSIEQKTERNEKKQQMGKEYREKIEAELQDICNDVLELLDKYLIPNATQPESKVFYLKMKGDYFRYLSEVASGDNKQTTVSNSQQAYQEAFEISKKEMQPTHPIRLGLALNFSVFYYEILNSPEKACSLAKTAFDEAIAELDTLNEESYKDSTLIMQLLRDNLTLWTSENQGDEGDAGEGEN
# T2: 14‐3‐3σ (human, UniProt P31947 1-248)
# T2 construct: 14-3-3 sigma, human, full-length protein from the pProEx HTb-His-14-3-3 construct (used in the FA assays); Written as the protomer; tag removal is told only for the ∆C proteins; source: E. coli BL21(DE3), purified (Ni2+-NTA, dialysis)
# T2 sequence (looked up): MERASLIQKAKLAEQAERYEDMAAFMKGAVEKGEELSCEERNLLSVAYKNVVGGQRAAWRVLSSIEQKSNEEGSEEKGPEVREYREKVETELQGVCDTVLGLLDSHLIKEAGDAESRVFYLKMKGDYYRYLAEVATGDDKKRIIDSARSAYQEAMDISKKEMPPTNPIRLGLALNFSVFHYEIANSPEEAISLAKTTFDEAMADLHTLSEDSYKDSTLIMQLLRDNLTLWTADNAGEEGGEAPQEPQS
# T3: 14‐3‐3τ (human, UniProt P27348 1-245)
# T3 construct: 14-3-3 tau/theta, human, full-length protein from the pProEx HTb-His-14-3-3 construct; Written as the protomer; tag removal is told only for the ∆C proteins; also called τ/θ; source: E. coli BL21(DE3), purified (Ni2+-NTA, dialysis)
# T3 sequence (looked up): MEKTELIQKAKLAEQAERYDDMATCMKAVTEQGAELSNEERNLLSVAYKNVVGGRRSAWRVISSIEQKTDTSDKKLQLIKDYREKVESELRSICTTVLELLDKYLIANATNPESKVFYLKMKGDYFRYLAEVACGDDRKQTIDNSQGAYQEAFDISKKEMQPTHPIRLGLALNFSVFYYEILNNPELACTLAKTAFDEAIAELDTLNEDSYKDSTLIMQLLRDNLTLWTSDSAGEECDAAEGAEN
# T4: 14‐3‐3ε (human, UniProt P62258 1-255)
# T4 construct: 14-3-3 epsilon, human, full-length protein from the pProEx HTb-His-14-3-3 construct; Written as the protomer; tag removal is told only for the ∆C proteins; source: E. coli BL21(DE3), purified (Ni2+-NTA, dialysis)
# T4 sequence (looked up): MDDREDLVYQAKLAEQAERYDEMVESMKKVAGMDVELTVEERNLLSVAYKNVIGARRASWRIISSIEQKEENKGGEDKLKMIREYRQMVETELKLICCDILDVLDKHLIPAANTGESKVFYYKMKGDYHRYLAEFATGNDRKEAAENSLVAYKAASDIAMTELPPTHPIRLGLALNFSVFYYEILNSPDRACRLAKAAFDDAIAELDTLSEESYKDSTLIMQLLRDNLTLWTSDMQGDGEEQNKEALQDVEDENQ
# T5: 14‐3‐3ζ (human, UniProt P63104 1-245)
# T5 construct: 14-3-3 zeta, human, full-length protein from the pProEx HTb-His-14-3-3 construct; Written as the protomer; tag removal is told only for the ∆C proteins; source: E. coli BL21(DE3), purified (Ni2+-NTA, dialysis)
# T5 sequence (looked up): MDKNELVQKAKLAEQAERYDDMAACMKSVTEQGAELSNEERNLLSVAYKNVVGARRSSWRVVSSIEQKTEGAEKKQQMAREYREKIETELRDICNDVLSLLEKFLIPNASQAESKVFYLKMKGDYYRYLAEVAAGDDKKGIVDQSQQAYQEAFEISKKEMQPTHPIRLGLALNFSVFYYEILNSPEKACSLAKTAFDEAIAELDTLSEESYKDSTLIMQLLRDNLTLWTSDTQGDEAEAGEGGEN
# T6: FAM‐Ahx‐hDMX_(335‐373) ^pSer342/pSer367 (human, phosphoserine at 342 and at 367; N-terminal FAM-Ahx (5,6-carboxyfluorescein on an aminohexanoic acid linker); C-terminal amide)
# T6 construct: hDMX (human double minute 4 protein, hDM4), human, residues 335-373; Tracer form used in the FA assays; source: synthetic peptide (Fmoc SPPS on Rink amide ProTide resin, HPLC purified)
# T6 peptide: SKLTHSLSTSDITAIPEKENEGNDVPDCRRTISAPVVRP
# B1: FAM‐Ahx‐hDM2_(160‐192) ^pSer166/pSer186 (peptide)
# peptide: SRRRAISETEENSDELSGERQRKRHKSDSISLS
# modifications: phosphoserine at 166 and at 186; N-terminal FAM-Ahx (5,6-carboxyfluorescein on an aminohexanoic acid linker); C-terminal amide
# notes: hDM2 (human double minute 2 protein), human, residues 160-192; Tracer form used in the FA assays; source: synthetic peptide (Fmoc SPPS on Rink amide ProTide resin, HPLC purified)
# Experiments:
# [1] = molecular target: T1, 14‐3‐3β; assay: fluorescence polarisation; fluorescence anisotropy, direct titration: 14-3-3 protein titrated (1/2 dilution series) against 50 nM FAM-Ahx tracer peptide; 10 mM HEPES, 150 mM NaCl, 0.1% Tween 20, 0.1% BSA, pH 7.4; 384 well plates, triplicates; protein concentration as 14-3-3 monomer; 1:1 fit, biphasic curves fitted as two separate 1:1 events (Kd1, Kd2); details: both partners purified
# [2] = molecular target: T2, 14‐3‐3σ; assay: as above; details: both partners purified
# [3] = molecular target: T3, 14‐3‐3τ; assay: as above; details: both partners purified
# [4] = molecular target: T4, 14‐3‐3ε; assay: as above; details: both partners purified
# [5] = molecular target: T5, 14‐3‐3ζ; assay: as above; details: both partners purified
# [6] = molecular target: B1; assay: as above; details: both partners purified
# [7] = molecular target: T6, FAM‐Ahx‐hDMX_(335‐373) ^pSer342/pSer367; assay: as above; details: both partners purified
# [8] = molecular target: the molecule itself; assay: AUC; sedimentation velocity; 14 μM 14-3-3η alone or with 7 μM or 14 μM hDMX pSer342/pSer367 peptide; 10 mM HEPES, 150 mM NaCl, pH 7.4; 25 °C; c(s) by SEDFIT
binding result [1],binding result [2],binding result [3],binding result [4],binding result [5],Kd1 (first binding event) [6] [µM],Kd1 (first binding event) [7] [µM],Binder,stoichiometry N [8]
binds,binds,binds,binds,binds,–,–,B1,–
–,–,–,–,–,0.05 ± 0.012,0.03 ± 0.006,"14‐3‐3η (natural protein, human, UniProt Q04917 1-246, looked up, 14-3-3 eta, human, full-length protein from the pProEx HTb-His-14-3-3 construct; Captured on an NTA chip in SPR; source: E. coli BL21(DE3), purified (Ni2+-NTA, dialysis)) MGDREQLLQRARLAEQAERYDDMASAMKAVTELNEPLSNEDRNLLSVAYKNVVGARRSSWRVISSIEQKTMADGNEKKLEKVKAYREKIEKELETVCNDVLSLLDKFLIKNCNDFQYESKVFYLKMKGDYYRYLAEVASGEKKNSVVEASEAAYKEAFEISKEQMQPTHPIRLGLALNFSVFYYEIQNAPEQACLLAKQAFDDAIAELDTLNEDSYKDSTLIMQLLRDNLTLWTSDQQDEEAGEGN",2
